Source: patent US20190046655A1 (ARBELE, published 2019)
Where a chain is given by its changes, count along the chain named.

B1: Lic3 scFv (scFv, V domains shown)
VH: EVQLVESGGGLVKPGGSLKLSCAASGFSFSDYYMYWVRQAPEKRLEWVASISFDGTYTYYTDRVKGRFTISRDNAKNNLYLQMSSLKSEDTAMYYCARDRPAWFPYWGQGTLVTVSA
VL: DVLMTQIPLSLTVSLGDQASISCRSSQSIVHSNGNTYLEWYLQRPGQSPKLLIYKVSNRFSGVPDRFSGSGSGTDFTLKISRVEAEDLGVYYCFQGSHVPLTFGAGTKLELK
notes: Tested as a single-chain Fv; also called scFv lic 3; mouse CDH17 antibody Lic3 scFv
B2: Lic5 scFv (scFv, V domains shown)
VH: B1 VH with V5E, S21P, F27S, Y32F, A40T
VL: DIVLTQTTLSLNVSLGDQASISCRSSQSIVHSNGNTYLEWYLQRPGQSPKLLIYKVSNRFSGVPDRFSGSGSGTDFTLKISRVEAEDLGVYYCFQGSHVPLTFGAGTKLELKR
notes: Tested as a single-chain Fv; also called scFv lic5; mouse CDH17 antibody Lic5 scFv

Biological target: T1, cadherin-17 (CDH17), ELISA antigen (UniProt Q12864 23-787, limits assumed)
T1 construct: also called liver-intestine cadherin
Test: ELISA

| Binder | Kd |
| --- | --- |
| B1 | 11.9 nM |
| B2 | 22.1 nM |
